From paper PMC10004559, “Identification of residues involved in allosteric signal transmission from amino acid binding site of pyruvate kinase muscle isoform 2” (PLOS ONE, 2023)

Target: the molecule itself
Experiment: SEC; 0.1 mg/ml enzyme in storage buffer (20-50 mM Tris-HCl pH 7.5, 150 mM KCl, 5% glycerol, 0.5 mM EDTA) with 10 mM THP, incubated 15 min without or with 10 mM Asn/Asp/Val/Cys; Superdex 200 10/300 GL, 0.5 ml/min; self-association, tetramer against dimer/monomer

B1: PKM2 R106A (enzyme)
chain: not shown
notes: Pyruvate kinase muscle isoform 2 (PKM2), human, UniProt P14618, with R106A; cloned in pET28a; No tag cleavage is described
- stoichiometry N: 4

B2: PKM2 N75L (enzyme)
chain: not shown
notes: Pyruvate kinase muscle isoform 2 (PKM2), human, UniProt P14618, with N75L; cloned in pET28a; No tag cleavage is described
- stoichiometry N: 4

B3: PKM2 N70D (enzyme)
chain: not shown
notes: Pyruvate kinase muscle isoform 2 (PKM2), human, UniProt P14618, with N70D; cloned in pET28a; not shown: His6, N-terminal, kept
- stoichiometry N: 4
